The record followed here is IntAct's records for PubMed 29892012.

The chains are these.
B1: Myotubularin-related protein 9 (Homo sapiens), Q96QG7 (parent)
chain: MEFAELIKTPRVDNVVLHRPFYPAVEGTLCLTGHHLILSSRQDNTEELWLLHSNIDAIDKRFVGSLGTIIIKCKDFRIIQLDIPGMEECLNIASSIEALSTLDSITLMYPFFYRPMFEVIEDGWHSFLPEQEFELYSSATSEWRLSYVNKEFAVCPSYPPIVTVPKSIDDEALRKVATFRHGGRFPVLSYYHKKNGMVIMRSGQPLTGTNGRRCKEDEKLINATLRAGKRGYIIDTRSLNVAQQTRAKGGGFEQEAHYPQWRRIHKSIERYHILQESLIKLVEACNDQTHNMDRWLSKLEASNWLTHIKEILTTACLAAQCIDREGASILIHGTEGTDSTLQVTSLAQIILEPRSRTIRGFEALIEREWLQAGHPFQQRCAQSAYCNTKQKWEAPVFLLFLDCVWQILRQFPCSFEFNENFLIMLFEHAYASQFGTFLGNNESERCKLKLQQKTMSLWSWVNQPSELSKFTNPLFEANNLVIWPSVAPQSLPLWEGIFLRWNRSSKYLDEAYEEMVNIIEYNKELQAKVNILRRQLAELETEDGMQESP
B2: Myotubularin-related protein 9 (Homo sapiens), Q96QG7 (parent)
chain: B1 chain
partner: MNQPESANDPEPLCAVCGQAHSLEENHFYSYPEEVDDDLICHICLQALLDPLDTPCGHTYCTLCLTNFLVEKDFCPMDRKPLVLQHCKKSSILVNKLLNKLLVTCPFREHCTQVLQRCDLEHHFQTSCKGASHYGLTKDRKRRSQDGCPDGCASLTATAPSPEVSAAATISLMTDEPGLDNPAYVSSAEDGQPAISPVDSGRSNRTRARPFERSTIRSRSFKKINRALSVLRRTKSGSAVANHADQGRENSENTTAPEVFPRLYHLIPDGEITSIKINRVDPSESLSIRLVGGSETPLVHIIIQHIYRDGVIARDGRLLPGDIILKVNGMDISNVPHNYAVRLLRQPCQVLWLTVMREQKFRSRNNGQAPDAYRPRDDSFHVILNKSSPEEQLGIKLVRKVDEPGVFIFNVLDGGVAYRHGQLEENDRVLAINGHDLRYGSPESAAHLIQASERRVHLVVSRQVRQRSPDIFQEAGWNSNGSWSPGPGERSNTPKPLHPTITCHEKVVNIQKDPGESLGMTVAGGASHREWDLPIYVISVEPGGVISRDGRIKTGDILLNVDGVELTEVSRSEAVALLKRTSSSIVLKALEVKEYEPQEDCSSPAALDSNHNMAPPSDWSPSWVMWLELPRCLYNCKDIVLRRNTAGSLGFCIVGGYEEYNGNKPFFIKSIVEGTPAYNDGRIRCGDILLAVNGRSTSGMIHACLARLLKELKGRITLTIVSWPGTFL
B3: Myotubularin-related protein 9 (Homo sapiens), Q96QG7 (parent)
chain: B1 chain
partner: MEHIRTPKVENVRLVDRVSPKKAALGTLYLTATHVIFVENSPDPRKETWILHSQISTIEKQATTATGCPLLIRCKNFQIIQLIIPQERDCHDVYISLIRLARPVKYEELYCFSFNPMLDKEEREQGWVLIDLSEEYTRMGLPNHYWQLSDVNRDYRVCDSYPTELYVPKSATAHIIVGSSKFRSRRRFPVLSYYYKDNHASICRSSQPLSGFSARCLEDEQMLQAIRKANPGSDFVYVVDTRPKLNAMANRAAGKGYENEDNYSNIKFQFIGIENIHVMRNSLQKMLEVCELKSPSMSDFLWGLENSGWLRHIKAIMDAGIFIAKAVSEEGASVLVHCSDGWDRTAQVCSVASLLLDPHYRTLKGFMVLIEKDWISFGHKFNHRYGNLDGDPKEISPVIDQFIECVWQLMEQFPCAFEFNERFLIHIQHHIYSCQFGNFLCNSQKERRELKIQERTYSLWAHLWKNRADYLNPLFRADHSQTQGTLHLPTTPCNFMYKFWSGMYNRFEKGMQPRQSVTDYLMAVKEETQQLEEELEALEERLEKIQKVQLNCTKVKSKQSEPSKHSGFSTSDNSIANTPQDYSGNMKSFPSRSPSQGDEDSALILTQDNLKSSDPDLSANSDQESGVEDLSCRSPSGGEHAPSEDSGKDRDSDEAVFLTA
B4: Myotubularin-related protein 9 (Homo sapiens), Q96QG7 (parent)
chain: B1 chain
partner: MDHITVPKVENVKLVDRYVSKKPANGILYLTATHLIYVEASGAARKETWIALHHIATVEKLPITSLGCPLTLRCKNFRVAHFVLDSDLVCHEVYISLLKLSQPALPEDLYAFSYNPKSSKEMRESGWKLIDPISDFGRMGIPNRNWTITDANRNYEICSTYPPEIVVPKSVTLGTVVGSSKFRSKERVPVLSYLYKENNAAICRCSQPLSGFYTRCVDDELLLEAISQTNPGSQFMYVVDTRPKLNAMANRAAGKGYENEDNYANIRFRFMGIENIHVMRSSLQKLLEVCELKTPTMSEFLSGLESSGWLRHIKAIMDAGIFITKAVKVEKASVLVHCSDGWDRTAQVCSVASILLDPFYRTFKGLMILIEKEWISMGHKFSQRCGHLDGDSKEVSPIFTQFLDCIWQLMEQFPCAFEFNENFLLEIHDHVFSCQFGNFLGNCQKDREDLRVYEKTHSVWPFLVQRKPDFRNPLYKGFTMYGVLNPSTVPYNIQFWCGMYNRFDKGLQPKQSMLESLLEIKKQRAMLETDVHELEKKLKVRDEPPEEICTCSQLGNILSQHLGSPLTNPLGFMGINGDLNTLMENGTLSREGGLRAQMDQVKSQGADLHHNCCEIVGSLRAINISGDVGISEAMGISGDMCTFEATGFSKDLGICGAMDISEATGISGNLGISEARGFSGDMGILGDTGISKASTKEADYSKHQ
B5: SOSS complex subunit C (Homo sapiens), Q9NRY2 (parent)
chain: MAANSSGQGFQNKNRVAILAELDKEKRKLLMQNQSSTNHPGASIALSRPSLNKDFRDHAEQQHIAAQQKAALQHAHAHSSGYFITQDSAFGNLILPVLPRLDPE

The variants in one test derive from B1. The settings on record: with emil1_human EMILIN1, Q9Y6C2.
Chain of emil1_human EMILIN1, Q9Y6C2 (Q9Y6C2 whole entry): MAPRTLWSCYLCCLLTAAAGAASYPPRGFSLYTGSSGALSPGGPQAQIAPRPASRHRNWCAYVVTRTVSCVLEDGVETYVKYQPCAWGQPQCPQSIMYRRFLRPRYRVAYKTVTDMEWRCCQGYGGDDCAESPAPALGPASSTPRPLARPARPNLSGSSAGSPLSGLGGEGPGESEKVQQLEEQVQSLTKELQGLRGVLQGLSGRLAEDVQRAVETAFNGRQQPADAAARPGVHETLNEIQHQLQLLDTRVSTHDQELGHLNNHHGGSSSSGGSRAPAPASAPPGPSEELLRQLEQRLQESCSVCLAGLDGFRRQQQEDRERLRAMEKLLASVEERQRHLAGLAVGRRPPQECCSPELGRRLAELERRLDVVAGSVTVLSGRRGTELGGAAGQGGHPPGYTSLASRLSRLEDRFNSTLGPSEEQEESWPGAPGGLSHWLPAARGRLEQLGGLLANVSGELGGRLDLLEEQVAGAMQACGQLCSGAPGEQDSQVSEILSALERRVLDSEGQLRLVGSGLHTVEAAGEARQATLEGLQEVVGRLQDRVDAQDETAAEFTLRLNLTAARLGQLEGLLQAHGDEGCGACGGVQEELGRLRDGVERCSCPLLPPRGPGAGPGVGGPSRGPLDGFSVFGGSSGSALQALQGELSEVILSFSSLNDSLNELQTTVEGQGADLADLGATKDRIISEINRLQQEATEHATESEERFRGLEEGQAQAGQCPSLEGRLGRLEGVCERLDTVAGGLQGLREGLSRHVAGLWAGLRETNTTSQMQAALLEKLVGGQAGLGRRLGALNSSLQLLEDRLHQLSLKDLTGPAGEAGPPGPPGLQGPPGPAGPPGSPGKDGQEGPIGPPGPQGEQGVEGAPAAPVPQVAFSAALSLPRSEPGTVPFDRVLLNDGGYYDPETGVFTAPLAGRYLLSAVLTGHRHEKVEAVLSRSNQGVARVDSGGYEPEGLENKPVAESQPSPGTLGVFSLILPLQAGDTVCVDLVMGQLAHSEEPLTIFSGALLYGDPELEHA
Consider MEFAELIKTPRVDNVVLHRPFYPAVEGTLCLTGHHLILSSRQDNTEELWLLHSNIDAIDKRFVGSLGTIIIKCKDFRIIQLDIPGMEECLNIASSIEALSTLDSITLMYPFFYRPMFEVIEDGWHSFLPEQEFELYSSATSEWRLSYVNKEFAVCPSYPPIVTVPKSIDDEALRKVATFRHGGRFPVLSYYHKKNGMVIMRSGQPLTGTNGRRCKEDEKLINATLRAGKRGYIIDTRSLNVAQQTRAKGGGFEQEAHYPQWRRIHKSIERYHILQESLIKLVEACNDQTHNMDRWLSKLEASNWLTHIKEILTTACLAAQCIDREGASILIHGTEGTDSTLQVTSLAQIILEPRSRTISGFEALIEREWLQAGHPFQQRCAQSAYCNTKQKWEAPVFLLFLDCVWQILRQFPCSFEFNENFLIMLFEHAYASQFGTFLGNNESERCKLKLQQKTMSLWSWVNQPSELSKFTNPLFEANNLVIWPSVAPQSLPLWEGIFLRWNRSSKYLDEAYEEMVNIIEYNKELQAKVNILRRQLAELETEDGMQESP [R359S], for which the “effect of a mutation on the interaction” value is “with no effect”.

A further test covers variants of B2. The settings on record: with lnx1_human LNX1, Q8TBB1.
For MEFAELIKTPRVDNVVLHRPFYPAVEGTLCLTGHHLILSSRQDNTEELWLLHSNIDAIDKRFVGSLGTIIIKCKDFRIIQLDIPGMEECLNIASSIEALSTLDSITLMYPFFYRPMFEVIEDGWHSFLPEQEFELYSSATSEWRLSYVNKEFAVCPSYPPIVTVPKSIDDEALRKVATFRHGGRFPVLSYYHKKNGMVIMRSGQPLTGTNGRRCKEDEKLINATLRAGKRGYIIDTRSLNVAQQTRAKGGGFEQEAHYPQWRRIHKSIERYHILQESLIKLVEACNDQTHNMDRWLSKLEASNWLTHIKEILTTACLAAQCIDREGASILIHGTEGTDSTLQVTSLAQIILEPRSRTISGFEALIEREWLQAGHPFQQRCAQSAYCNTKQKWEAPVFLLFLDCVWQILRQFPCSFEFNENFLIMLFEHAYASQFGTFLGNNESERCKLKLQQKTMSLWSWVNQPSELSKFTNPLFEANNLVIWPSVAPQSLPLWEGIFLRWNRSSKYLDEAYEEMVNIIEYNKELQAKVNILRRQLAELETEDGMQESP [R359S], the “effect of a mutation on the interaction” value is given as “with no effect”.

Variants of B3 are the subject of the next test. The note with it: with mtmr7_human MTMR7, Q9Y216.
With MEFAELIKTPRVDNVVLHRPFYPAVEGTLCLTGHHLILSSRQDNTEELWLLHSNIDAIDKRFVGSLGTIIIKCKDFRIIQLDIPGMEECLNIASSIEALSTLDSITLMYPFFYRPMFEVIEDGWHSFLPEQEFELYSSATSEWRLSYVNKEFAVCPSYPPIVTVPKSIDDEALRKVATFRHGGRFPVLSYYHKKNGMVIMRSGQPLTGTNGRRCKEDEKLINATLRAGKRGYIIDTRSLNVAQQTRAKGGGFEQEAHYPQWRRIHKSIERYHILQESLIKLVEACNDQTHNMDRWLSKLEASNWLTHIKEILTTACLAAQCIDREGASILIHGTEGTDSTLQVTSLAQIILEPRSRTISGFEALIEREWLQAGHPFQQRCAQSAYCNTKQKWEAPVFLLFLDCVWQILRQFPCSFEFNENFLIMLFEHAYASQFGTFLGNNESERCKLKLQQKTMSLWSWVNQPSELSKFTNPLFEANNLVIWPSVAPQSLPLWEGIFLRWNRSSKYLDEAYEEMVNIIEYNKELQAKVNILRRQLAELETEDGMQESP [R359S], the “effect of a mutation on the interaction” value is given as “with no effect”.

In another test the parent is B4. The note with it: with mtmr8_human MTMR8, Q96EF0.
In the case of MEFAELIKTPRVDNVVLHRPFYPAVEGTLCLTGHHLILSSRQDNTEELWLLHSNIDAIDKRFVGSLGTIIIKCKDFRIIQLDIPGMEECLNIASSIEALSTLDSITLMYPFFYRPMFEVIEDGWHSFLPEQEFELYSSATSEWRLSYVNKEFAVCPSYPPIVTVPKSIDDEALRKVATFRHGGRFPVLSYYHKKNGMVIMRSGQPLTGTNGRRCKEDEKLINATLRAGKRGYIIDTRSLNVAQQTRAKGGGFEQEAHYPQWRRIHKSIERYHILQESLIKLVEACNDQTHNMDRWLSKLEASNWLTHIKEILTTACLAAQCIDREGASILIHGTEGTDSTLQVTSLAQIILEPRSRTISGFEALIEREWLQAGHPFQQRCAQSAYCNTKQKWEAPVFLLFLDCVWQILRQFPCSFEFNENFLIMLFEHAYASQFGTFLGNNESERCKLKLQQKTMSLWSWVNQPSELSKFTNPLFEANNLVIWPSVAPQSLPLWEGIFLRWNRSSKYLDEAYEEMVNIIEYNKELQAKVNILRRQLAELETEDGMQESP [R359S], the “effect of a mutation on the interaction” value is on record as “with no effect”.

Variants of B5 are the subject of a further test. The settings on record: with rbpms_human RBPMS.
As to MAANSSGQGFQNKNRVAILAELDKEKRTLLMQNQSSTNHPGASIALSRPSLNKDFRDHAEQQHIAAQQKAALQHAHAHSSGYFITQDSAFGNLILPVLPRLDPE [K28T], the “effect of a mutation on the interaction” value was “with no effect”.
